The target in the test is M144 mutant NS1A protein (L-to-A substitution at position 144) (influenza A/Udorn/72 virus) (UniProt P03495).

Where “and” joins values, the source holds several entries; their conditions need not be identical. Equal entries are not always repeated.

The source of these data is patent publication US20100107264A1.

As for “GST-F2F3 (GST fusion of CPSF30 amino acids 61-121, second and third zinc fingers)”, the percent of wild-type binding (% of wild-type binding) was 5 and 10.
